The chains are these.
B1: OR4K15 (parent)
chain: GUUAACGGUCAUAGGCCAUGGAAACUAGGAGCACCAUUUCGCUGCCAGUGAAGAAAUGAACAAAGAAAAUCUGGGCCAGGCAGGCAUCAAAAGAAAUAGUCUUGCGCUCAACCAGAAAGUCUGUAAUCAUUUUAAGGGUA

Variants of B1 are the subject of the series. Briefly: self-cleavage, relative activity (ratio to wild type); higher = more cleavage; in vitro, sequencing; the parent is a self-cleaving ribozyme.
With A22U A30G, the self-cleavage amounted to 1.13.
The result for A23G U49C reads 0.9; that for A22U A111G, 0.02; that for U19G A33G, 0.96.
Regarding G21A A60G, the self-cleavage stood at 1.14.
The figure for A23C C76A is 0.13.
Regarding G21U A62G, the self-cleavage is 1.54.
For A22G A82U, the self-cleavage stood at 0.36.
For the variant U19C U120C, the self-cleavage stood at 0.77.
Consider G20A A117G, for which the self-cleavage amounted to 0.65.
The figure for A23G A86U is 1.25.
The result for A23G A86G reads 0.99.
The figure for A23G A117G is 1.2; for A22U A63U it is 2.2; for A22U A63G it is 1.45.
Turning to U19C G74C, the self-cleavage came out at 0.18.
The result for A22U A56G reads 1.16.
Consider A22G A134U, for which the self-cleavage worked out at 1.05.
In the case of A22G U108A, the self-cleavage amounted to 0.01.
For the variant A23G G119A, the self-cleavage came out at 1.38.
Regarding U19C U37C, the self-cleavage turned out to be 1.5.
U19C G119A: the self-cleavage is 2.13.
For the variant A22U A51G, the self-cleavage is 1.63.
Regarding A23G C32U, the self-cleavage stood at 0.82.
G20A A64G: the self-cleavage stood at 1.49.
The figure for A23G A59G is 1.11; for A22G U120A it is 1.22.
Turning to A22G U70C, the self-cleavage turned out to be 0.91.
The result for U19G A110G reads 0.2; that for G21U U108C, 0.02.
Take A22G U97G: the self-cleavage came to 1.42.
On to A23G G48A, for which the self-cleavage turned out to be 1.29.
The figure for A23G G48U is 0.73; for G21A A33U it is 2.16.
The figure for A22G C76U is 0.19; for A22G A129U it is 0.78.
The result for A22G A129G reads 0.61; that for A23G A36C, 1.41; that for A23G A36G, 1.43.
Take G21A A64U: the self-cleavage was determined as 1.5.
The figure for A22G A90G is 1.12; for U19C U102C it is 2.32; for U19C U102G it is 0.78.
Consider A23G A110U, for which the self-cleavage stood at 1.25.
The result for A23G A110G reads 0.11; that for A22C U131G, 0.94.
Take G21U G65A: the self-cleavage is 1.96.
The figure for A22G A140U is 0.8; for A22G A140G it is 1.85; for A23G A111U it is 0.23.
As to A23G A111G, the self-cleavage worked out at 0.05.
As to A23G A111C, the self-cleavage was 0.
With G20A A69G, the self-cleavage worked out at 1.
Consider U19G A67G, for which the self-cleavage stood at 1.1.
For the variant A22U U57C, the self-cleavage was 0.84.
For A22G G136A, the self-cleavage stood at 0.6.
The result for A22U A27U reads 2.02.
The figure for G21A U38A is 1.28.
On to G21A A98U, for which the self-cleavage turned out to be 2.32.
The result for A22U A91G reads 0.68; that for A23C A96G, 1.33; that for A23G U37C, 1.03.
With U19G G115A, the self-cleavage was determined as 0.38.
Consider A22U A23G, for which the self-cleavage was 1.74.
The figure for A22U U72C is 0.04; for A22U U72A it is 0.21; for U19C U70C it is 0.7.
The result for U19C U70A reads 1.06; that for A23G A98U, 0.92; that for A22G A54G, 0.84.
The figure for A22G A54C is 1.7.
Turning to A22G U37G, the self-cleavage is 0.8.
The result for A22G U37A reads 2.01.
The figure for A23G G50U is 0.79; for A23G G50A it is 1.9.
The result for G21U U102C reads 2.03.
In the case of G20A U102A, the self-cleavage was 0.58.
The figure for A23G A89G is 1.32; for A22U G53A it is 1.47; for A22C U127C it is 1.48.
The figure for U19C G48A is 1.61.
Consider G21A A114U, for which the self-cleavage worked out at 0.05.
The result for G21U U122A reads 1.42; that for G21C U108C, 0.02; that for A22U A66G, 1.5.
The figure for A22G A89C is 1.28; for G20A A27C it is 1.93.
Turning to A23G A27U, the self-cleavage came to 1.29.
As for A22U U120A, the self-cleavage stood at 1.95.
Take A22U U120C: the self-cleavage was 0.48.
For U19C G75C, the self-cleavage was found to be 0.17.
Regarding U19C G75A, the self-cleavage worked out at 0.23.
The result for A23C U130C reads 0.85; that for A22U A60G, 1.29; that for A22U A54G, 1.46.
For G21A A125G, the self-cleavage was 0.73.
Take A22G U131A: the self-cleavage was 1.53.
The figure for A23G A90G is 0.8; for A22U G123U it is 1.96.
The result for A22U G138U reads 2.01; that for A22U C25U, 0.77; that for U19G A24G, 1.16.
For the variant A22G A116U, the self-cleavage is 0.35.
On to U19C C113U, for which the self-cleavage turned out to be 0.08.
Turning to U19C U39A, the self-cleavage worked out at 2.15.
The result for A22G U132G reads 1.75; that for U19C G83A, 1.68.
Take A22G: the self-cleavage worked out at 1.09.
The figure for A22C is 1.11; for A22U it is 1.3; for A23G A92G it is 1.17.
As for G20A A118G, the self-cleavage was found to be 0.79.
In the case of A23G A55G, the self-cleavage came to 1.27.
The result for G21U A22G reads 1.71; that for A23G A82G, 0.57; that for G21A C85G, 0.64.
The figure for U19C U72C is 0.25; for A22G U103G it is 0.05.
As to A22G U103A, the self-cleavage stood at 0.41.
The result for A23G G84U reads 0.21; that for A23G G65A, 0.71; that for A22G U49G, 1.39.
For the variant A22G U49C, the self-cleavage came out at 0.55.
G21U U37A: the self-cleavage is 1.06.
On to A23G G136A, for which the self-cleavage was 1.39.
Regarding G21U A90G, the self-cleavage came out at 1.16.
Regarding A22C U70C, the self-cleavage turned out to be 1.25.
The figure for A22U A68G is 0.93; for U19C U103C it is 0.66; for U19C G137A it is 0.95.
The figure for G20U U39A is 1.57; for A22G A96G it is 1.28.
The result for A22G A96C reads 1.58.
Take A22G A51G: the self-cleavage worked out at 1.22.
Turning to A22G G44A, the self-cleavage came to 1.2.
The figure for A22U U132A is 1.7; for A23G A94G it is 1.42; for A23G A94C it is 1.14.
With G21A A51G, the self-cleavage came out at 1.66.
The figure for A22G A118U is 1.05.
Consider U19C U132C, for which the self-cleavage came out at 1.24.
The result for U19C U49A reads 1.38; that for U19C U49C, 1.6.
Take A23G A51U: the self-cleavage stood at 1.22.
The result for A23G C46U reads 1.59; that for A22G C109U, 0.
Turning to G20U U122A, the self-cleavage is 2.45.
The figure for A22U A89G is 1.31; for U19G it is 1.18; for A22U A67G it is 1.87.
The figure for A22U U43A is 2.1; for A22U U43C it is 1.81; for A22G A94G it is 0.92.
The figure for A22G A94C is 1.21.
For the variant A23G G115A, the self-cleavage is 0.05.
Consider A22G U102A, for which the self-cleavage came out at 0.32.
The figure for A22G U102C is 1.56.
The figure for A22G U102G is 1.05; for A22C A63U it is 1.85; for G21A U127C it is 1.32.
For A22U A95G, the self-cleavage was 0.94.
The figure for U19C U43A is 2.04.
The figure for A22U A116G is 0.96; for A22U A94G it is 1.84; for A22G A67C it is 1.6.
As for A22G U139A, the self-cleavage was determined as 1.14.
Regarding A22G U139C, the self-cleavage turned out to be 1.24.
